Key:
[1] = target: T1, Human CD123 on the surface of leukemic cell lines (human, UniProt P26951 19-378); experiment: cell-based or functional assay
[2] = target: T2, Human CD123-His (soluble human IL3R-alpha) (human, UniProt P26951 19-305, limits assumed); experiment: bifunctional ELISA, plate coated with human CD123, detection with human CD3-biotin and streptavidin-HRP
T2 construct: also called interleukin 3 receptor alpha chain; not shown: His tag
T2 sequence (looked up): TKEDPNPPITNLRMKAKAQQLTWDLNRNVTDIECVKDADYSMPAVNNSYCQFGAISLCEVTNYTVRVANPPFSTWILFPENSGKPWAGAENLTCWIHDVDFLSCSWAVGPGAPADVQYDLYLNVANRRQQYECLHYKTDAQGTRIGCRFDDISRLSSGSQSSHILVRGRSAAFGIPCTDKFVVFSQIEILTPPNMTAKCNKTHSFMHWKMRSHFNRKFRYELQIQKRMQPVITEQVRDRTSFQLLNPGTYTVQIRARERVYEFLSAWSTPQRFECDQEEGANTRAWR
Protocol: (§1) A MaxiSorp ELISA plate (Nunc) coated overnight with the soluble human or cynomolgus IL3R-alpha (0.5 μg/mL) in bicarbonate buffer was blocked with 0.5% BSA; 0.1% Tween-20 in PBS (PBST/BSA) for 30 minutes at room temperature. […] HRP activity was detected by conversion of tetramethylbenzidine (BioFX) as substrate for 5 min; the reaction was terminated with […] of 1% […] and the absorbance read at 450 nm.

[3] = target: T3, Cynomolgus CD123-His (soluble cynomolgus IL3R-alpha) (cynomolgus monkey); experiment: bifunctional ELISA, plate coated with cynomolgus monkey CD123, detection with human CD3-biotin and streptavidin-HRP
T3 construct: also called cynomolgus monkey CD123; monkey CD123
Protocol: as §1

[4] = target: T2, Human CD123-His (soluble human …); experiment: BIACORE surface plasmon resonance, purified human CD123 captured and immobilized, 1:1 binding fit
Text: (§2) BIACORE™ analyses measure the dissociation off-rate, kd. The binding affinity (KD) between an antibody and its target is a function of the kinetic constants for association (on rate, ka) and dissociation (off-rate, kd) according to the formula: KD=[kd]/[ka]. The BIACORE™ analysis uses surface plasmon resonance to directly measure these kinetic parameters. Recombinant human or cynomolgus monkey CD3 was directly immobilized to a support. Purified human or cynomolgus monkey CD123 was captured and immolbilized to a support. The time course of dissociation was measured and a […] of the data conducted. Binding constants and affinity were obtained using a 1:1 binding fit.

[5] = target: T3, Cynomolgus CD123-His (soluble …); experiment: BIACORE surface plasmon resonance, purified cynomolgus monkey CD123 captured and immobilized, 1:1 binding fit
Text: as §2

[6] = target: T2, Human CD123-His (soluble human …); experiment: SPR (BIAcore 3000), antigen immobilized on the chip, DART-A injected, 1:1 Langmuir fit, mean of 3 experiments
Protocol: (§3) Briefly, the carboxyl groups on the CMS sensor chip were activated with an injection of 0.2M N-ethyl-N-([…]) carbodiimide and 0.05M N-hydroxy-succinimide. Soluble CD3 or CD123 (1 μg/ml) was injected over the activated CMS surface in 10 mM sodium-acetate, pH 5.0, at flow rate 5 μL/min, followed by 1 M ethanolamine for deactivation. Binding experiments were performed in 10 mM HEPES, pH 7.4, 150 mM NaCl, 3 mM EDTA and 0.005% P20 surfactant. Regeneration of the immobilized receptor surfaces was performed by pulse injection of 10 mM glycine, pH 1.5. KD values were determined by a global fit of binding curves to the Langmuir 1:1 binding model (BIAevaluation software v4.1).
(§4) The data in Table 7 are averages of 3 independent experiments each performed in duplicates.

[7] = target: T3, Cynomolgus CD123-His (soluble …); experiment: as above
Protocol: as §3, §4

[8] = target: T1, Human CD123 on the surface of leukemic …; experiment: FACS on Molm-13 cells, detection with a monoclonal antibody to the E-coil/K-coil region

B1: Sequence-Optimized CD123 × CD3 Bi-Specific Diabody Having an Albumin-Binding Domain (DART-A w/ABD) (bispecific antibody)
chain 1: QAVVTQEPSLTVSPGGTVTLTCRSSTGAVTTSNYANWVQQKPGQAPRGLIGGTNKRAPWTPARFSGSLLGGKAALTITGAQAEDEADYYCALWYSNLWVFGGGTKLTVLGGGGSGGGGEVQLVQSGAELKKPGASVKVSCKASGYTFTDYYMKWVRQAPGQGLEWIGDIIPSNGATFYNQKFKGRVTITVDKSTSTAYMELSSLRSEDTAVYYCARSHLLRASWFAYWGQGTLVTVSSGGCGGGEVAALEKEVAALEKEVAALEKEVAALEKGGGSLAEAKVLANRELDKYGVSDYYKNLIDNAKSAEGVKALIDEILAALP
chain 2: DFVMTQSPDSLAVSLGERVTMSCKSSQSLLNSGNQKNYLTWYQQKPGQPPKLLIYWASTRESGVPDRFSGSGSGTDFTLTISSLQAEDVAVYYCQNDYSYPYTFGQGTKLEIKGGGSGGGGEVQLVESGGGLVQPGGSLRLSCAASGFTFSTYAMNWVRQAPGKGLEWVGRIRSKYNNYATYYADSVKDRFTISRDDSKNSLYLQMNSLKTEDTAVYYCVRHGNFGNSYVSWFAYWGQGTLVTVSSGGCGGGKVAALKEKVAALKEKVAALKEKVAALKE
EC50 of redirected killing of Kasumi-3 cells (LDH release, E:T = 10:1) [1]: 0.01 ng/mL
EC50 of redirected killing of Molm13 cells (LDH release, E:T = 10:1) [1]: 0.18 ng/mL
EC50 of redirected killing of RS4-11 cells (LDH release, E:T = 10:1) [1]: 0.5 ng/mL
EC50 of redirected killing of TF-1 cells (LDH release, E:T = 10:1) [1]: 0.46 ng/mL
EC50 of redirected killing of THP-1 cells (LDH release, E:T = 10:1) [1]: 0.24 ng/mL

B2: Sequence-Optimized CD123 × CD3 Bi-Specific Diabody (DART-A) (bispecific antibody)
chain 1: QAVVTQEPSLTVSPGGTVTLTCRSSTGAVTTSNYANWVQQKPGQAPRGLIGGTNKRAPWTPARFSGSLLGGKAALTITGAQAEDEADYYCALWYSNLWVFGGGTKLTVLGGGGSGGGGEVQLVQSGAELKKPGASVKVSCKASGYTFTDYYMKWVRQAPGQGLEWIGDIIPSNGATFYNQKFKGRVTITVDKSTSTAYMELSSLRSEDTAVYYCARSHLLRASWFAYWGQGTLVTVSSGGCGGGEVAALEKEVAALEKEVAALEKEVAALEK
chain 2: DFVMTQSPDSLAVSLGERVTMSCKSSQSLLNSGNQKNYLTWYQQKPGQPPKLLIYWASTRESGVPDRFSGSGSGTDFTLTISSLQAEDVAVYYCQNDYSYPYTFGQGTKLEIKGGGSGGGGEVQLVESGGGLVQPGGSLRLSCAASGFTFSTYAMNWVRQAPGKGLEWVGRIRSKYNNYATYYADSVKDRFTISRDDSKNSLYLQMNSLKTEDTAVYYCVRHGNFGNSYVSWFAYWGQGTLVTVSSGGCGGGKVAALKEKVAALKEKVAALKEKVAALKE
notes: Two-chain heterodimer, the chains disulfide-bonded to one another; one CD123 site and one CD3 site; 58.9 kDa
EC50 (read off the curve) [2]: ~10 ng/mL
EC50 (read off the curve) [3]: ~40 ng/mL
Kd [4]: 0.14 nM
Kd [5]: 0.27 nM
Kd [6]: 0.13 nM
koff [6]: 0.00019 s⁻¹
kon [6]: 1.6e+06 M⁻¹ s⁻¹
Kd [7]: 0.27 nM
koff [7]: 0.0004 s⁻¹
kon [7]: 1.5e+06 M⁻¹ s⁻¹

B3: Control Bi-Specific Diabody (Control DART) (bispecific antibody)
chain 1: DVVMTQTPFSLPVSLGDQASISCRSSQSLVHSNGNTYLRWYLQKPGQSPKVLIYKVSNRFSGVPDRFSGSGSGTDFTLKISRVEAEDLGVYFCSQSTHVPWTFGGGTKLEIKGGGSGGGGEVQLVESGGGLVQPGGSLRLSCAASGFTFNTYAMNWVRQAPGKGLEWVARIRSKYNNYATYYADSVKDRFTISRDDSKNSLYLQMNSLKTEDTAVYYCVRHGNFGNSYVSWFAYWGQGTLVTVSSGGCGGGEVAALEKEVAALEKEVAALEKEVAALEK
chain 2: QAVVTQEPSLTVSPGGTVTLTCRSSTGAVTTSNYANWVQQKPGQAPRGLIGGTNKRAPWTPARFSGSLLGGKAALTITGAQAEDEADYYCALWYSNLWVFGGGTKLTVLGGGGSGGGGEVKLDETGGGLVQPGRPMKLSCVASGFTFSDYWMNWVRQSPEKGLEWVAQIRNKPYNYETYYSDSVKGRFTISRDDSKSSVYLQMNNLRVEDMGIYYCTGSYYGMDYWGQGTSVTVSSGGCGGGKVAALKEKVAALKEKVAALKEKVAALKE
notes: Bi-specific for fluorescein (FITC) and CD3; has no CD123 arm; also called FITC × CD3 control diabody
binding result [2]: no binding (tested: 1 ug/mL)
binding result [8]: no binding
